Values quoted from earlier work in article PMC9569990 (International Journal of Molecular Sciences, 2022).

What was measured:
[1] = target: RAGE V domain (Homo sapiens) (UniProt Q15109); conditions: cited from earlier work
S100P (Homo sapiens) = S100P (Homo sapiens) (UniProt P25815); conditions: cited from earlier work
Sequence of S100P (Homo sapiens) (P25815 whole entry): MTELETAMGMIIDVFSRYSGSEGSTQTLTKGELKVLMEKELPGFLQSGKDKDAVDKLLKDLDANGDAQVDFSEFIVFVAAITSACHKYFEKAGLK

Sequence of S100P (P25815 whole entry): as above
Sequence of RAGE V domain (Homo sapiens) (Q15109 23-116): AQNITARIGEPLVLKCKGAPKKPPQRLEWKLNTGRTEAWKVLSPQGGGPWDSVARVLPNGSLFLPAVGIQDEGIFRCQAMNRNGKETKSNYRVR

For S100P (from UniProt P25815), the Kd [1] is listed as 6 µM and the Kd (S100P (Homo sapiens)) is listed as 0.064 µM.
